Patent publication US20240174753A1 (ANWITA BIOSCIENCES, published 2024)
Residue numbers refer to the chain shown, from its start. Names and notes keep the numbering of the source. Each block holds one binder with its values, some of them ahead of it.

Tests used:
CD122-Fc fusion protein = biological target: T1, CD122-Fc fusion protein (UniProt P14784 27-240, limits assumed); test: BLI (Octet RED96); CD122-Fc on AHC biosensor, IL-2 mutein at 400 nM; set-up: unit not given here
T1 construct: also called IL-2Rβ; not shown: Fc part
T1 sequence (looked up): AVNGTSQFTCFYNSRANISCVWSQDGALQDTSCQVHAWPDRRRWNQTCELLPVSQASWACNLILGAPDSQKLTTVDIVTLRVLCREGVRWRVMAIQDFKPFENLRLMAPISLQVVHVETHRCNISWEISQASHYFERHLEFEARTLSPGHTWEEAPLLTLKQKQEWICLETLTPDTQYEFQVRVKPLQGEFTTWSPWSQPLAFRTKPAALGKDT
Description: (§1) Briefly, an CD25- or CD122-Fc fusion protein was loaded onto an anti-human IgG Fc capture (AHC) biosensor.

CD25-Fc fusion protein = biological target: T2, CD25-Fc fusion protein (UniProt P01589 22-213, limits assumed); test: BLI (Octet RED96); CD25-Fc on AHC biosensor, IL-2 mutein at 400 nM; set-up: unit not given here
T2 construct: also called IL-2Rα; not shown: Fc part
T2 sequence (looked up): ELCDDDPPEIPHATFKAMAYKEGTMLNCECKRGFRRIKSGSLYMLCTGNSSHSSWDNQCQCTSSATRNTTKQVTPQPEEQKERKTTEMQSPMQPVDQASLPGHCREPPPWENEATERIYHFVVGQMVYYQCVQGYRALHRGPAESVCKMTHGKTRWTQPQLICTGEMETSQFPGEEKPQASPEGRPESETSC
Description: as §1

Binding Response (CD122-Fc fusion protein): > 0.5
Binding Response (CD25-Fc fusion protein): < 0.05
B1: hIL-2 Mutein (K32E, F42C, V69C, C125S) (ligand)
chain: APTSSSTKKTQLQLEHLLLDLQMILNGINNYENPKLTRMLTCKFYMPKKATELKHLQCLEEELKPLEECLNLAQSKNFHLRPRDLISNINVIVLELKGSETTFMCEYADETATIVEFLNRWITFSQSIISTLT
notes: The description says F42C and V69C form a disulfide bond; Column headed 'Fusion Protein'; no fusion partner is stated for the assay

Binding Response (CD122-Fc fusion protein): > 0.5
Binding Response (CD25-Fc fusion protein): < 0.05
B3: hIL-2 Mutein (K32E, R38E, F42K, C125S) (ligand)
chain: B1 chain with R38E, C42K, C69V
notes: Column headed 'Fusion Protein'; no fusion partner is stated for the assay

Binding Response (CD122-Fc fusion protein): < 0.1
Binding Response (CD25-Fc fusion protein): < 0.05
B5: IL-2-IL-15 Chimera 35 (I92E, C125S) (ligand)
chain: APTSSSTKKTQLQLEHLLLDLQMILNGIQSMEIDATTFKFYMPKKATELKHLQCLEEELKPLEEVLNLAQSKNFHLRPRDLISNINVEVLELKGSETTFMCEYADETATIVEFLNRWITFSQSIISTLT
notes: No fusion partner is stated for the assay; also called IL-2-IL-15 Chimera 29 (I92E, C125S)

Binding Response (CD122-Fc fusion protein): < 0.1
Binding Response (CD25-Fc fusion protein): < 0.05
B6: IL-2-IL-15 Chimera 17 (H16V, C125S) (ligand)
chain: B5 chain with H16V, E88I
notes: as for B3

Binding Response (CD122-Fc fusion protein): < 0.2
Binding Response (CD25-Fc fusion protein): < 0.05
B7: IL-2-IL-15 Chimera 11 (H16E, C125S) (ligand)
chain: B5 chain with H16E, E88I
notes: as for B3

Binding Response (CD122-Fc fusion protein): > 0.5
Binding Response (CD25-Fc fusion protein): < 0.05
B8: IL-2-IL-15 Chimera 5 (E15K, C125S) (ligand)
chain: B5 chain with E15K, E88I
notes: as for B3

Binding Response (CD122-Fc fusion protein): < 0.1
Binding Response (CD25-Fc fusion protein): < 0.05
B10: IL-2-IL-15 Chimera 23 (D20E, C125S) (ligand)
chain: B5 chain with D20E, E88I
notes: as for B3

Binding Response (CD122-Fc fusion protein): < 0.1
Binding Response (CD25-Fc fusion protein): < 0.05
B13: IL-2-IL-15 Chimera 19 (D20T, C125S) (ligand)
chain: B5 chain with D20T, E88I
notes: as for B3

Binding Response (CD122-Fc fusion protein): < 0.1
Binding Response (CD25-Fc fusion protein): < 0.05
B15: IL-2-IL-15 Chimera 25 (D20K, C125S) (ligand)
chain: B5 chain with D20K, E88I
notes: as for B3

Binding Response (CD122-Fc fusion protein): < 0.1
Binding Response (CD25-Fc fusion protein): < 0.05
B16: IL-2-IL-15 Chimera 21 (D20A, C125S) (ligand)
chain: B5 chain with D20A, E88I
notes: as for B3

More lines, now with the values behind:

B2: hIL-2 Mutein (R38N, L40T, C125S) (ligand)
chain: B1 chain with E32K, R38N, L40T, C42F, C69V
notes: as for B3
Binding Response (CD122-Fc fusion protein): > 0.5
Binding Response (CD25-Fc fusion protein): < 0.05

B4: IL-2-IL-15 Chimera 1 (C125S) (ligand)
chain: B5 chain with E88I
notes: as for B3
Binding Response (CD122-Fc fusion protein): > 0.5
Binding Response (CD25-Fc fusion protein): < 0.05

B9: IL-2-IL-15 Chimera 29 (I92A, C125S) (ligand)
chain: B5 chain with E88A
notes: as for B3
Binding Response (CD122-Fc fusion protein): < 0.1
Binding Response (CD25-Fc fusion protein): < 0.05

B11: IL-2-IL-15 Chimera 27 (N88A, C125S) (ligand)
chain: B5 chain with N84A, E88I
notes: as for B3
Binding Response (CD122-Fc fusion protein): < 0.1
Binding Response (CD25-Fc fusion protein): < 0.05

B12: IL-2-IL-15 Chimera 33 (I92D, C125S) (ligand)
chain: B5 chain with E88D
notes: No fusion partner is stated for the assay; also called IL-2-IL-15 Chimera 29 (I92D, C125S)
Binding Response (CD122-Fc fusion protein): < 0.1
Binding Response (CD25-Fc fusion protein): < 0.05

B14: IL-2-IL-15 Chimera 31 (I92G, C125S) (ligand)
chain: B5 chain with E88G
notes: No fusion partner is stated for the assay; also called IL-2-IL-15 Chimera 29 (I92G, C125S)
Binding Response (CD122-Fc fusion protein): < 0.2
Binding Response (CD25-Fc fusion protein): < 0.05

B17: IL-2-IL-15 Chimera 15 (H16I, C125S) (ligand)
chain: B5 chain with H16I, E88I
notes: as for B3
Binding Response (CD122-Fc fusion protein): < 0.1
Binding Response (CD25-Fc fusion protein): < 0.05
